Test results from publication PMC5435687 (Scientific Reports, 2017).
Values joined by “and” are separate entries in the source; they are usually repeats but may differ in a detail not shown here. Identical values can stand only once.

Assays:
SH-SY5Y cells = experiment: Confocal imaging based quantification of cellular uptake of Aβ; format: cell-based, human; settings: for number of internalised Aβ peptides per cell (rounded): SH-SY5Y, 1 µM peptide, 8 h, imaging-based quantification, order-of-magnitude statement; for intravesicular Aβ concentration: re-calculated from molecules per cell (1 µM, 8 h) under assumption of total lysosomal load of 10 μm^3 per cell
Experimental: The samples were washed 1x in serum free medium prior to incubation with Aβ peptides and/or other reagents also in serum free medium that was supplemented with 30 mM HEPES and 2% B-27. For experiments including Trf B-27 was omitted as it, according to the media formulation provided by the manufacturer, contains unlabelled Trf that interferes with the experiment. Prior to imaging, cells were stained with 50 nM LysoTracker Deep Red for 30 min and 5 µg/ml Hoechst 33342 was added during the last 10 min of incubation. The cells were thereafter washed 1x, treated with 5 µg/ml FM 4–64 and imaged immediately (for labelling of cellular membrane) or after 10 min incubation at 37 °C (for labelling of cellular membrane and endocytic vesicles). Confocal images were acquired either on a Nikon C2+ confocal microscope equipped with a C2-DUVB GaAsP Detector Unit and using an oil-immersion 60 × 1.4 Nikon APO objective (Nikon Instruments, Amsterdam, Netherlands), or on a home-built Thorlabs CLS system equipped with a Galvo:Resonant scanner, a Multi-Channel Fiber-Coupled laser source and High-Sensitivity GaAsP PMT detectors recording onto ThorImageLS software (Thorlabs Inc, New Jersey, U.S.A.). The scanner unit was mounted onto a Leica DMIRB microscope equipped with an oil immersion 63x NA 1.47 Leica HCX PL APO objective for imaging and co-localisation analysis, or a 40x NA 0.55 Leica N PLAN L CORR air objective for quantification of peptide uptake. The sample was excited and detected sequentially with appropriate excitation laser lines and emission filters.
Images were captured with an open pinhole, corresponding to 7.8 airy units (AUs), in order to sample intensity from intracellular peptide throughout the full thickness of the cells. First, to determine an accurate sampling depth, images were acquired at three focal planes separated by 1 µm between each and analysed for matched summed intracellular intensity. Next, images were acquired with identical settings from a field of view with on average 25 cells/image. […] To obtain the total Aβ emission intensity per cell, all pixel values were summed and divided by the total number of cells in the image (the cell number was determined from the number of nuclei visible in the Hoechst emission channel). […] The mean intensity per pixel was calculated and related to concentration by performing a linear regression of mean intensity from three samples per concentration. The imaging depth was calculated based on imaging parameters and objective specifications generating a point spread function (PSF) for the focal spot. The resulting voxel size was calculated to be 740 nm in the axial direction, whereby 2.5x this voxel was determined to be representative of the sampling probe depth. […]

[1] = test system: SH-SY5Y cells transfected with AP180-C; experiment: Uptake in cells overexpressing AP180-C; format: cell-based, human; settings: SH-SY5Y 24 h post transfection; HF488-labelled Aβ 1 µM 1 h or AF647-Trf 5 µg/ml 5 min; low and high mRFP gates; N = 2, n = 2–4
Experimental: Flow cytometry was used to quantify cellular uptake. The samples were washed in serum free medium (1x for experiments including only Aβ and 3x for experiments with Trf) prior to incubation with Aβ peptides and/or other reagents in serum free medium supplemented with 30 mM HEPES and 2% B-27. For experiments including Trf B-27 was omitted, as outlined above. Prior to analysis, the cells were washed 1x (for experiments including only Aβ) or 3x (for experiments including Aβ and dextran 10 kDa or Trf) in serum free medium, detached by trypsin-EDTA for 10 min followed by addition of FBS-supplemented cell culture medium to inhibit further proteolytic degradation. All samples were kept on ice until they were analysed on a Guava EasyCyte 8HT (Millipore, Darmstadt, Germany) that automatically retrieves samples from a 96-well plate. In order to exclude effects due to difference in delay time we used mixed order of analysis, loading only a few samples at a time with the remaining samples kept on ice. The cell counting gate was determined using propidium iodide (0.5 µM, not washed away prior to analysis) and calcein-AM (10 nM, 15 min staining) to distinguish live and dead cells, and for each sample 5,000 cells from within the live gate were counted and analysed. HF488, AlexaFluor488, EGFP and calcein-AM were excited by a 488 nm laser and their fluorescence was detected through a 525/30 nm filter. Propidium iodide and mRFP were excited by the 488 nm laser but detected through a 692/46 nm filter. HF647 and AlexaFluor647 were excited with a 635 nm laser and detected through a 661/19 nm filter. Compensation was performed to adjust for bleed through in experiments including mRFP. Mean cellular uptake was estimated as the average fluorescence intensity of all cells gated within the live region and all individual experiments were performed with three technical replicates (n = 3) unless else is stated. The average fluorescence intensity was baseline corrected by subtracting the signal for unstained cells. […]

Substance | number of internalised Aβ peptides per cell (rounded) (SH-SY5Y cells) | intravesicular Aβ concentration (SH-SY5Y cells) | uptake in AP180-C transfected cells compared to non-transfected cells [1]
Aβ(1–42): Synthetic 42 residue amyloid-β peptide conjugated to HiLyte Fluor HF488 (or HF647) at the N-terminus, from Anaspec | 800,000 molecules per cell and ~ 800,000 molecules per cell | ~ 140 µM | small but statistically significant increase
Aβ(1–40): Synthetic 40 residue amyloid-β peptide conjugated to HiLyte Fluor HF488 (or HF647) at the N-terminus, from Anaspec | 400,000 molecules per cell and ~ 400,000 molecules per cell | ~ 60 µM | neither Aβ(1–40) nor Aβ(1–42) uptake was affected
